Source: patent publication US20210277137A1 (AbbVie / Abbott, published 2021)
Where a chain is given by its changes, count along the chain named. In names and notes the source's numbering stands.

T1: human FcγRIIA (CD32a) on CHO cells (human, UniProt P12318 34-317)
T1 construct: whole, on cells
T1 sequence (looked up): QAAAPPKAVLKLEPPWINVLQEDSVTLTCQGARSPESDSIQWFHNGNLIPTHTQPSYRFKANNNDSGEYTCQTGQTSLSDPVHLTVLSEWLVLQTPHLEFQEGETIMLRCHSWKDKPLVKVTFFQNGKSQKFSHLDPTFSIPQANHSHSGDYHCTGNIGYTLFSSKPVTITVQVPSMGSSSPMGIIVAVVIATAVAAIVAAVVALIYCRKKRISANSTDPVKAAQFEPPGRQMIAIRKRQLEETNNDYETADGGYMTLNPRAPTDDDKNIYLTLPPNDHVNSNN

T2: human FcγRIIB (CD32b) on CHO cells (human, UniProt P31994 43-310)
T2 construct: whole, on cells
T2 sequence (looked up): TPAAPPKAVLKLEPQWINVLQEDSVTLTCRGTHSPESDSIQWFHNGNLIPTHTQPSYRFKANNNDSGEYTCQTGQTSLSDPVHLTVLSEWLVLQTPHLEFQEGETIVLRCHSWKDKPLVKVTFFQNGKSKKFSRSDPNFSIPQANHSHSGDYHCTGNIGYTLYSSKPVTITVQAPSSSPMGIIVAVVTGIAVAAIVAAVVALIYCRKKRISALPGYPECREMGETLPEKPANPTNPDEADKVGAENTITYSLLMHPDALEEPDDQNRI

B1: Humanized muAb9 A2I (antibody, human IgG1, kappa)
heavy: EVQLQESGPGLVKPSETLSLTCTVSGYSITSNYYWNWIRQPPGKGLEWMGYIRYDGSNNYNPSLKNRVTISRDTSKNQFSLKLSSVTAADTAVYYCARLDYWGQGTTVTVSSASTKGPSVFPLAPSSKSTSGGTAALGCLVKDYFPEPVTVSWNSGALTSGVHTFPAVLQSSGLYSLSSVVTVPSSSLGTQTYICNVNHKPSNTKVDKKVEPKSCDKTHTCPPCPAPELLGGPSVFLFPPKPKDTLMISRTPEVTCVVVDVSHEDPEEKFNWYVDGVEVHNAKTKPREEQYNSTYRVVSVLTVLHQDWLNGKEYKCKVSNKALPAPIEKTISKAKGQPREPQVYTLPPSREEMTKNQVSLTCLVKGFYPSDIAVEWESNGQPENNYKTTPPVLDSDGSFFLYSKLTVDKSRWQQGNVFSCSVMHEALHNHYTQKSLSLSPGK
light: DIVMTQTPLSLSVTPGQPASISCRSSQSLENTNGNTFLNWYLQKPGQSPQLLIYRVSNRFSGVPDRFSGSGSGTDFTLKISRVEAEDVGVYYCLQVTHVPFTFGQGTKLEIKRTVAAPSVFIFPPSDEQLKSGTASVVCLLNNFYPREAKVQWKVDNALQSGNSQESVTEQDSKDSTYSLSSTLTLSKADYEKHKVYACEVTHQGLSSPVTKSFNRGEC
notes: human IgG1 V273E/kappa; also called huAb9 A2I; huAb9 A2I (huIgG1 V273E)
B2: Humanized muAb9 #5 (antibody, human IgG1, kappa)
heavy: not shown
light: B1 light with I2A
notes: wild type human IgG1/kappa; also called huAb9-5; huAb9-5 with wild type huIgG1

What was measured:
human CD40 on cells [1] = biological target: T3, human CD40 on cells (human, UniProt P25942 21-277); assay: cell-based or functional assay
T3 sequence (P25942 21-277 limits assumed): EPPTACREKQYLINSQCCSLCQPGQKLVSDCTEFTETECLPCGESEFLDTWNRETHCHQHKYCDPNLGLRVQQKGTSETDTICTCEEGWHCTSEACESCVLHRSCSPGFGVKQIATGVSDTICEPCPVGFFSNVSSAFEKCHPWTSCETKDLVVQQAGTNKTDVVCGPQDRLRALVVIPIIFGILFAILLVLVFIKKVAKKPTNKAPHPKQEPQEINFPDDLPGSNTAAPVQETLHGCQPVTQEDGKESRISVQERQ

[2] = biological target: soluble form of the extracellular domain of human CD40 (Creative BioMart, cat #CD402221H) (human, UniProt P25942 21-193); assay: SPR (BIAcore T200); antibody captured by anti-Fc; soluble CD40 injected
soluble form of the extracellular domain of human CD40 (Creative BioMart, cat #CD402221H), sequence (P25942 21-193 limits assumed): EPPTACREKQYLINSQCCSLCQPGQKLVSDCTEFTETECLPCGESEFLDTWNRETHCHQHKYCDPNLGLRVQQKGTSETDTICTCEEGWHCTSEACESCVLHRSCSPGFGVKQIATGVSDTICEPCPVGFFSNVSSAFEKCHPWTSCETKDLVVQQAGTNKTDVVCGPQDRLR
Description: (§1) CD40 binding kinetics was analyzed by BIAcore assay with a BIAcore T200 instrument. Briefly, a goat anti-mouse Fc antibody (Pierce, cat #31170) or goat anti-human Fc (Pierce, cat #31125) was immobilized on a CM5 sensor chip, followed by capture of the anti-CD40 antibodies on the test surface.

[3] = biological target: T4, soluble cynomolgus (cyno) CD40 (Creative BioMart, cat #CD40-8824C) (cynomolgus, UniProt G7PG38 21-193); assay: as above
T4 construct: extracellular domain; also called Cynomolgus CD40
Description: as §1

[4] = biological target: T5, Alexa Fluor 488-conjugated soluble human CD40 protein (human, UniProt P25942 21-193, limits assumed, Alexa Fluor 488 conjugate (sites not given)); assay: flow cytometry: antibody titrated into 1 µg/mL Alexa Fluor 488-conjugated soluble human CD40 on CD40L+ Jurkat cells; half-maximal enhancement of the binding of CD40 to cell-surface CD40L
T5 construct: also called fluorochrome-conjugated human CD40
T5 sequence (P25942 21-193 limits assumed): as above

[5] = biological target: T6, CD40-human Fc (huFc) fusion protein (Creative BioMart) (human, UniProt P25942 21-193); assay: ELISA: antibody titrated into 1 µg/mL CD40-huFc, mixture added to plate coated with HA-tagged CD40L, bound complex detected with HRP anti-human Fc; half-maximal enhancement of the signal of CD40-huFc on CD40L
T6 construct: bought; also called CD40-huFc; not shown: human Fc
T6 sequence (P25942 21-193 limits assumed): as above
Text: After development with TMB (3, 3′, 5, 5′-tetramethylbenzidine) substrate, the plates were read at OD₄₅₀.

human CD40 on cells [6] = biological target: T3, human CD40 on cells; assay: cell-based or functional assay; remark: listed apart in the source
[7] = biological target: T7, human FcγRI (CD64) on CHO cells (human, UniProt P12314 16-374); assay: flow cytometry on CHO cells stably expressing human FcγRI (CD64), detection with fluorescence-conjugated anti-human F(ab')2 secondary antibody
T7 construct: whole, on cells
T7 sequence (P12314 16-374): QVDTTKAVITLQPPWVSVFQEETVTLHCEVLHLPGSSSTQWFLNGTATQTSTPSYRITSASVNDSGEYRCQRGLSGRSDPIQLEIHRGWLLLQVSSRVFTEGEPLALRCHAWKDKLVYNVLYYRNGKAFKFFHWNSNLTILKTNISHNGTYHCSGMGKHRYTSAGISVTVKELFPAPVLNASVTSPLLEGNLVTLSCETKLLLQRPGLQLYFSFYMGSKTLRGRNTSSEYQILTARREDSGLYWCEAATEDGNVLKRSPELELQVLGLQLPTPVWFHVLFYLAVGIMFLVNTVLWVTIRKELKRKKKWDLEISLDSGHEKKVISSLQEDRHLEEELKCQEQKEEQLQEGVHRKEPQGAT
Description: (§2) Increasing amounts of anti-CD40 human IgG₁ antibodies and their Fc variants were incubated with CHO cells stably expressing different human Fcγ receptors, including FcγRI (CD64), FcγRIIA (CD32a), FcγRIIB (CD32b), and FcγRIIIA (CD16) with either F or V polymorphism. The binding was detected with a fluorescence-conjugated anti-human F(ab′)2 specific secondary antibody (Jackson ImmunoResearch).

[8] = biological target: T1, human FcγRIIA (CD32a) on CHO cells; assay: flow cytometry on CHO cells stably expressing human FcγRIIA (CD32a), detection with fluorescence-conjugated anti-human F(ab')2 secondary antibody
Description: as §2

[9] = biological target: T2, human FcγRIIB (CD32b) on CHO cells; assay: flow cytometry on CHO cells stably expressing human FcγRIIB (CD32b), detection with fluorescence-conjugated anti-human F(ab')2 secondary antibody
Description: as §2

[10] = biological target: T8, human FcγRIIIA (CD16) with F polymorphism on CHO cells (human, UniProt P08637 17-254); assay: flow cytometry on CHO cells stably expressing human FcγRIIIA (CD16F), detection with fluorescence-conjugated anti-human F(ab')2 secondary antibody
T8 construct: whole, on cells; also called CD16F
T8 sequence (P08637 17-254): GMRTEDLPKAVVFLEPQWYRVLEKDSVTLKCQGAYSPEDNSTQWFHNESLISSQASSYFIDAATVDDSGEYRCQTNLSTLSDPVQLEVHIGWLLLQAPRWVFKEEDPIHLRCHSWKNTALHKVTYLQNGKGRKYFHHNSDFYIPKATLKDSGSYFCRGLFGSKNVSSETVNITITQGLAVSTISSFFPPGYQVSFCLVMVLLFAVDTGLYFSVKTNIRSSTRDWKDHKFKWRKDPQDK
Description: as §2

[11] = biological target: T9, human FcγRIIIA (CD16) with V polymorphism on CHO cells (human, UniProt P08637 17-254); assay: flow cytometry on CHO cells stably expressing human FcγRIIIA (CD16V), detection with fluorescence-conjugated anti-human F(ab')2 secondary antibody
T9 construct: whole, on cells; V allotype; also called CD16V
T9 sequence (P08637 17-254 F176V): as the sequence (P08637 17-254) above, with F160V counted along it
Description: as §2

Binder	NFκB activity EC50; HEK293 blue CD40 reporter cells co-cultured with CHO cells expressing CD16F (human CD40 on cells [1])	NFκB activity EC50; HEK293 blue CD40 reporter cells co-cultured with CHO cells expressing CD16V (human CD40 on cells [1])	NFκB activity EC50; HEK293 blue CD40 reporter cells co-cultured with CHO cells expressing CD32a (human CD40 on cells [1])	NFκB activity EC50; HEK293 blue CD40 reporter cells co-cultured with CHO cells expressing CD32b (human CD40 on cells [1])	NFκB activity EC50; HEK293 blue CD40 reporter cells co-cultured with CHO cells expressing CD64 (human CD40 on cells [1])	NFκB activity EC50; HEK293 blue CD40 reporter cells co-cultured with FcγR negative CHO cells (human CD40 on cells [1])	Kd [2]	koff [2]	kon [2]	Kd [3]	koff [3]	EC50 (read off the curve) [4]	EC50 (read off the curve) [5]	Maximal activation (OD655) in HEK293 blue CD40 NFκB reporter cells (human CD40 on cells [6])	NFκB activation EC50 (SEAP, OD655) in HEK293 blue CD40 NFκB reporter cells (human CD40 on cells [6])	EC50 (read off the curve) [7]	binding result [8]	binding result [9]	binding result [10]	binding result [11]
B1	0.39 nM	0.3 nM	0.08 nM	0.07 nM	0.01 nM	0.72 nM	170 nM	0.22 s⁻¹	1.3e+06 M⁻¹ s⁻¹	150 nM	0.25 s⁻¹	~4 µg/mL	~1 µg/mL	–	–	–	–	–	–	–
B2	–	–	–	–	–	–	–	–	–	–	–	–	~0.2 µg/mL	0.67 OD655	1.13 µg/mL	~0.5 µg/mL	binds	no binding (tested: 100 µg/mL)	binds	binds
